In the DeepSol protein solubility set:

experiment: soluble on expression in E. coli; label from the status in PepcDB or PDB records

Sequence | soluble on expression in E. coli
SSEDLAKQLASYKAQLQQVEAALSGNGENEDLLKLKKDLQEVIELTKDLLSTQPSETLASSDSFASTQPTHSWKVGDKCMAVWSEDGQCYEAEIEEIDEENGTAAITFAGYGNAEVTPLLNLKPVEEGRKAKEDSGNKPMSKKEMIAQQREYKKKKALKKAQRIKELEQEREDQKVKWQQFNNRAYSKNKKGQVKRSIFASPESVTGKVGVGTCGIADKPMTQYQDTSKYNVRHLMPQ | soluble
SSEQTLEYFLNKGTIRRKDAADIEWYHAANSKSKLMEALRGSAQMIEADVLLRGADPEEPIMAHPPAKDSDITLQDWLKEVVKTDKGIKLDFKSLAAVSQSMSLLEEIRDQLKGPVWINADILPGPGGTATPVDPHVFLQEVAQRSENDVLSLGWTTGWTANVDNPGYSWEMVHQMEELCRPLKQPVTFPVRASLLPMSFPQFQWLLEQSDRSEILH | soluble
SSFQTSLPRLPVPAVKDTVNRYLQSVRPLMKEEDFKRMTALAQDFAVGLGPRLQWYLKLKSWWATNYVSDWWEEYIYLRGRGPLMVNSNYYAMDLLYILPTHIQAARAGNAIHAILLYRRKLDREEIKPIRLLGSTIPLCSAQWERMFNTSRIPGEETDTIQHMRDSKHIVVYHRGRYFKVWLYHDGRLLKPREMEQQMQRILDNTSEPQPGEARLAALTAGDRVPWARCRQAYFGRGKNKQSLDAVEKAAFFVTLDETEEGYRSEDPDTSMDSYAKSLLHGRCYDRWFDKSFTFVVFKNGKMGLNAEHSWADAPIVAHLWEYVMSIDSLQLGYAEDGHCKGDINPNIPYPTRLQWDIPGECQEVIETSLNTANLLANDVDFHSFPFVAFGKGIIKKCRTSPDAFVQLALQLAHYKDMGKFCLTYEASMTRLFREGRTETVRSCTTESCDFVRAMVDPAQTVEQRLKLFKLASEKHQHMYRLAMTGSGIDRHLFCLYVVSKYLAVESPFLKEVLSEPWRLSTSQTPQQQVELFDLENNPEYVSSGGGFGPVADDGYGVSYILVGENLINFHISSKFSCPETDSHRFGRHLKEAMTDIITLFGLSSNSKK | soluble
SSGLSESKQTHVHLRNVDAATLQIIITYAYTGNLAMNDSTVEQLYETACFLQVEDVLQRCREYLIKKINAENCVRLLSFADLFSCEELKQSAKRMVEHKFTAVYHQDAFMQLSHDLLIDILSSDNLNVEKEETVREAAMLWLEYNTESRSQYLSSVLSQIRIDALSEVTQRAWFQGLPPNDKSVVVQGLYKSMPKFFKPRLGMTKEEMMIFIEASSENPCSLYSSVCYSPQAEKVYKLCSPPADLHKVGTRCNS | soluble
SSIEFLAVEKQKIIAKETLELYAKIAGRIGMYPVKTQLADLSFKVLDPKNFNNTLSKINQQKVFYDNEWGNFKKQLEEMLEQNQIEYRLE | not soluble
SSSGLNSEKVAALIQKLNSDPQFVLAQNVGTTHDLLDICLKRATVQRAQHVFQHAVPQEGKPITNQKSSGRCWIFSCLNVMRLPFMKKLNIEEFEFSQSYLFFWDKVERCYFFLSAFVDTAQRKEPEDGRLVQFLLMNPANDGGQWDMLVNIVEKYGVIPKKCFPESYTTEATRRMNDILNHKMREFCIRLRNLVHSGATKGEISATQDVMMEEIFRVVCICLGNPPETFTWEYRDKDKNYQKIGPITPLEFYREHVKPLFNMEDKICLVNDPRPQHKHNKLYTVEYLSNMVGGRKTLYNNQPIDFLKKMVAASIKDGEAVWFGCDVGKHFNSKLGLSDMNLYDHELVFGVSLKNMNKAERLTFGESLMTHAMTFTAVSEKDDQDGAFTKWRVENSWGEDHGHKGYLCMTDEWFSEYVYEVVVDRKHVPEEVLAVLEQEPIILPAWDPMGALA | soluble
SSTDQGTNPADTDDLTPTTLSLAGDFPKATEEQWEREVEKVLNRGRPPEKQLTFAECLKRLTVHTVDGIDIVPMYRPKDAPKKLGYPGVAPFTRGTTVRNGDMDAWDVRALHEDPDEKFTRKAILEGLERGVTSLLLRVDPDAIAPEHLDEVLSDVLLEMTKVEVFSRYDQGAAAEALVSVYERSDKPAKDLALNLGLDPIGFAALQGTEPDLTVLGDWVRRLAKFSPDSRAVTIDANIYHNAGAGDVAELAWALATGAEYVRALVEQGFTATEAFDTINFRVTATHDQFLTIARLRALREAWARIGEVFGVDEDKRGARQNAITSWRELTREDPYVNILRGSIATFSASVGGAESITTLPFTQALGLPEDDFPLRIARNTGIVLAEEVNIGRVNDPAGGSYYVESLTRSLADAAWKEFQEVEKLGGMSKAVMTEHVTKVLDACNAERAKRLANRKQPITAVSEFPMIGARSIETKPFPAAPARKGLAWHRDSEVFEQLMDRSTSVSERPKVFLACLGTRRDFGGREGFSSPVWHIAGIDTPQVEGGTTAEIVEAFKKSGAQVADLCSSAKVYAQQGLEVAKALKAAGAKALYLSGAFKEFGDDAAEAEKLIDGRLFMGMDVVDTLSSTLDILGVAK | soluble
SSWKPRSQQPDAPLGTGANRDLELPWLEQQGPASHHRRQLGPQGPPHLVADPSKKQGPWLEEEEEAYGWMDFGRRSAEDEN | soluble
STNPKPQRKTKRNTNRRPQDVKFPGGGQIVGGVYLLPRRGPRLG | soluble
STPGPGASAPNSPMALLTLNCEKEMDDVIEDIISLESSYSDDILGFMDAGLQMTNTIPVSANLLDMYSNHALPPAGVSISNSCPSSLPAVKRELSVTPSPGMMHIMDKAGPCGKFDSYQRPDGFPVEVRALAKERQKKDNHNLIERRRRFNINDRIKELGTLIPKSNDPDMRWNKGTILKASVDYIRKLQKEQQNAKELENRQKRLEHANRHLLLRIQELEMQARAHGLTVVASSSLYSAELVARAIKQEPGMGDCTSNLYPHLPSPDMSRPTTLDLNNGTISYNDSPTEDGEPGVYDSPNKASTKLEDMLMDNTLSPVGSSDPLLSSGSPVPSNSSGSSSMDEHDNGC | not soluble
STTALCRMNMILHNSATADIAKGGSSTLSNPLFTTENGMLKTFDYVVANPPFS | not soluble
STTGIIMENVTAFWEEGFGELLEKVQQSNGDRKHSSDENNVSFSHLCLVGNPVLKNINLNIEKGEMLAITGSTGSGKTSLLMLILGELEASEGIIKHSGRVSFCSQFSWIMPGTIKENIIFGVSYDEYRYKSVVKACQLQQDITKFAEQDNTVLGEGGVTLSGGQRARISLARAVYKDADLYLLDSPFGYLDVFTEEQVFESCVCKLMANKTRILVTSKMEHLRKADKILILHQGSSYFYGTFSELQSLRPDFSSKLMGYDTFDQFTEERRSSILTETLRRFSVDDSSAPWSKPKQSFRQTGEVGEKRKNSILNSFSSVRKISIVQKTPLCIDGESDDLQEKRLSLVPDSEQGEAALPRSNMIATGPTFPGRRRQSVLDLMTFTPNSGSSNLQRTRTSIRKISLVPQISLNEVDVYSRRLSQDSTLNITEEINEEDLKECFLDDVIKIPPVTTWNTYLRYFTLHKG | soluble
SVEVITHPGVNSNYLSKNLLRSIFGMRLRTWQDGLPVRVFVLPDDAPLHSTFTKQKLNIFPYQLRSAWDRMVYSGTGQAPFVVHTEEEMRARIASTPGAIGYLSGSMINDSVQVVHID | not soluble
SVFPQQTGQLAELQPQDRAGARASWMPMFQRRRRRDTHFPICIFCCGCCHRSKCGMCCKT | not soluble
SVSEIQLMHNLGKHLNSMERVEWLRKKLQDVHNF | soluble
SVSGLAILYLRRRRAPLARLRQAIQRCEFFVCYQPIVSLSDGRCVGAEALVRWRQQDGTLILPDQFIPLAERSGLILPITDQVIAASMRELGPLLVADRSLHIAINVSVKDIESGRLLDVLALALQDTGLYRKQLWIEATERSFMDARAAREHIVRLREAGYAVVIDDFGTGYSNLQYLQQLPLDALKIDKSFIDTVGRDVTNTAVASHIIDIAKELGMRTIAEGVEREEQLVYLRARGVDMAQGWLFSSP | not soluble
SYMYDRDGSLVSEIVSDHENRVLVPFNKIPEEVKQIFLTSEDRHFYEHKGFDFMGMVPPTASNVKDKKIDQGASTITQQLSRNLYLSHERSFSRKLTELAYSYQLEKKYTKNEILEAYLNTIYFNNGVYGVGSAAQFYFSKPLKSLTVGEMAFICAIPNNPTLYDPLKHF | not soluble
SYSYVYIYMPTWREDKRNILEIIDFDRLNQLCIKNNNLFLFRLHPNTEINLDMLVSYSNLRIIDSSCDIYPILPFTDVLITDYSSIYYDYMLIPNKQILLFPFDEEEYCTFNRDLAFDYKIYTPGIRIYSFEALLEIVESKKNLNIKEIKVIKKLFWKGRNESIIDRIIN | not soluble
TDAPANQGFIIGVTGCPAGVAHTYLAAEALEKGAAAMGYEIKVETNGSIGVKNSPTAEEIERADAIIVACDKQVDMNRFAGKRVVKTNVKAPIRDAQGLINEALNAPTY | not soluble
TDIAGLTIEHVTGDYLNGFRIIPDNIKYKGVIVTFGGSDGTPAYEQAVQLAQEGYQVLALFFFGMPNQHPTLAEVPVEYYQEIESYISQHFSQPDKITVIGTSKGAEYALLLASLYDSIDNVVLYAPSSHIYAGLDFRNYSSSWSQNGKALPYLDVRSENSLKLFYNFLIKTPISYYHTYKQALDKDKNSEDKRIKVEKTKANILIFAGENDRMWPSAESARLIEKYQPNHTQVTIYKEAGHLFAGDGI | not soluble
TDLSAQKRLAADVLDVGKNRVWFNPERQGDIADAITREDVRELVDEGAIQAKDKKGNSRGRARERQKKRAKGHQKGAGSRKGKAGARQNSKEDWESRIRAQRTKLRELRDEGTLSSSQYRDLYDKAGGGEFDSVADLERYIDANHGDA | soluble
TEFGSELKSFPEVVGKTVDQAREYFTLHYPQYNVYFLPEGSPVTRDLRYNRVRVFYNPGTNVVNHVPHVG | soluble
TELTLKPGTLTLAQLRAIHAAPVRLQLDASAAPAIDASVACVEQIIAEDRTAYGINTGFGLLASTRIASHDLENLQRSLVLSHAAGIGAPLDDDLVRLIMVLKINSLSRGFSGIRRKVIDALIALVNAEVYPHIPLKGSVGASGDLAPLAHMSLVLLGEGKARYKGQWLSATEALAVAGLEPLTLAAKEGLALLNGTQASTAYALRGLFYAEDLYAAAIACGGLSVEAVLGSRSPFDARIHEARGQRGQIDTAACFRDLLGDSSEVSLSHKNADKVQDPYSLRCQPQVMGACLTQLRQAAEVLGIEANAVSDNPLVFAAEGDVISGGNFHAEPVAMAADNLALAIAEIGSLSERRISLMMDKHMSQLPPFLVENGGVNSGFMIAQVTAAALASENKALSHPHSVDSLPTSANQEDHVSMAPAAGKRLWEMAENTRGVLAIEWLGACQGLDLRKGLKTSAKLEKARQALRSEVAHYDRDRFFAPDIEKAVELLAKGSLTGLLPAGVLPSL | soluble
TEPTIHKGLAGVTADVTAISKVNSDTNSLLYRGYPVQELAAKCSFEQVAYLLWNSELPNDSELKAFVNFERSHRKLDENVKGAIDLLSTACHPMDVARTAVSVLGANHARAQDSSPEANLEKAMSLLATFPSVVAYDQRRRRGEELIEPREDLDYSANFLWMTFGEEAAPEVVEAFNVSMILYAEHSFNASTFTARVITSTLADLHSAVTGAIGALKGPLHGGANEAVMHTFEEIGIRKDESLDEAATRSKAWMVDALAQKKKVMGFGHRVYKNGDSRVPTMKSALDAMIKHYDRPEMLGLYNGLEAAMEEAKQIKPNLDYPAGPTYNLMGFDTEMFTPLFIAARITGWTAHIMEQVADNALIRPLSEYNGPEQRQVP | soluble
TETRLLQARVSDLQRLSSLGRMVASLAHQVRTPLSSAMLYASNLGAPNLPPATRERFQSKLMDRLHDLEKQVNDMLLFAKGGDNKVIKPFTIAQLVAEYQPMVETALKNNNIDYFLEVEEEQTE | not soluble
TFGKDNIKSKVILFSIEKPSKEVAEKLEMQDDYIYRIIRMREVGHKAYSIEHTYMPLAIIPGLEPHHLEDSIYNYIRDDLKLKMQSAHVWVRGDKSNQEDSKLLDLEEPTFMMEIEKLAHLEDGRVFEYSITRHTYESFV | not soluble
